Laboratory results: article PMC4358367, “Structural basis of diverse membrane target recognitions by ankyrins” (eLife, 2014)

Tests used:
[1] = target: T1, AnkG_repeats (24 ANK repeats of rat 190 kDa ankyrin-G, residues 38–855), O70511; experiment: ITC; details: chain shown with the change
T1 chain: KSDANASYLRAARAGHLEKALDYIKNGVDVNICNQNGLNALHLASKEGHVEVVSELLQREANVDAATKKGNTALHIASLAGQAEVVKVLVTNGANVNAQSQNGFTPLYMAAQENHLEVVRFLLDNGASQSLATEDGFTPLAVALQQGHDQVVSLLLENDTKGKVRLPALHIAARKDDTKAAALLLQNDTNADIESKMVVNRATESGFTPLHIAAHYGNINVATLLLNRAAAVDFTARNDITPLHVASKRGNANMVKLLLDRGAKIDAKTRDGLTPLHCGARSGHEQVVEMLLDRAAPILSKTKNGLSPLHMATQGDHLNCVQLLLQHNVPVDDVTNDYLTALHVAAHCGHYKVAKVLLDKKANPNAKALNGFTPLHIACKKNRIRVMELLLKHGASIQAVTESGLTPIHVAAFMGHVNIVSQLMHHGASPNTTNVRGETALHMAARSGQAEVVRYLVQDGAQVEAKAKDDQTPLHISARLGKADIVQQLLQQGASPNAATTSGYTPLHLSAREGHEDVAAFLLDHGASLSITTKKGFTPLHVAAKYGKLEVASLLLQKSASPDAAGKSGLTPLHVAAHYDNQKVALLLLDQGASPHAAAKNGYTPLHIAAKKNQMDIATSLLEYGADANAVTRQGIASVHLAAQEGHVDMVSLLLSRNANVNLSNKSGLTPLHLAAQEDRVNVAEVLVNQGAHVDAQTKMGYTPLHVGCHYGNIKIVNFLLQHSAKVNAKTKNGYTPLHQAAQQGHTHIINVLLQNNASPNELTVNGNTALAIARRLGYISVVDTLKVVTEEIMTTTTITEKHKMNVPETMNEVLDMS

AnkG_repeats = target: T2, AnkG_repeats (Rattus norvegicus, UniProt O70511); experiment: ITC binding to AnkG_repeats WT; details: 25°C, 50 mM Tris, 100 mM NaCl, 1 mM EDTA, 1 mM DTT, pH 7.5, one-site binding model, AnkG_repeats WT
T2 construct: thioredoxin-His6 (N); made in house; host or cells: Escherichia coli BL21 (DE3)
T2 sequence (O70511 38-855): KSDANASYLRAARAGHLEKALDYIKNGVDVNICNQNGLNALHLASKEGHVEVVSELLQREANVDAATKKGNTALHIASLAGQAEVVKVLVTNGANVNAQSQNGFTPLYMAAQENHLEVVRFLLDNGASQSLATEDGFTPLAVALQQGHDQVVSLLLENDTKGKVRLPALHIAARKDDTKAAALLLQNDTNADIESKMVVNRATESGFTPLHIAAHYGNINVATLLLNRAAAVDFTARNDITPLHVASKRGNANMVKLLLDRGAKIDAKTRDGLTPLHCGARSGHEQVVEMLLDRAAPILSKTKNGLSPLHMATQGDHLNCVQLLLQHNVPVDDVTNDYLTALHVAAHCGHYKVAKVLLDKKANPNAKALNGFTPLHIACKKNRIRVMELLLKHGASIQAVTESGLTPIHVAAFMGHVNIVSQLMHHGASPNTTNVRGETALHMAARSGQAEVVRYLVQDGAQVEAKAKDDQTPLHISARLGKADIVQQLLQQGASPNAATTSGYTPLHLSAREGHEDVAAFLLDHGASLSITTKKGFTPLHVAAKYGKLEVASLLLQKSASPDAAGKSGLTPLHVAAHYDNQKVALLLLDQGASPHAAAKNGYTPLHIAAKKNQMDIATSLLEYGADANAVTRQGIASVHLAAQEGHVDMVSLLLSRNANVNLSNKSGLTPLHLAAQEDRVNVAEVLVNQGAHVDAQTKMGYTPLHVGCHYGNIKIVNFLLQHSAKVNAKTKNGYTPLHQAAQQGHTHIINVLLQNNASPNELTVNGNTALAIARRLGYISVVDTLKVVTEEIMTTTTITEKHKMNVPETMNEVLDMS
Source text: The coding sequences of AnkB_repeats (residues 28–873) were PCR amplified using the full-length human 220 kDa AnkB as the template. The coding sequences of the AnkR constructs, including AnkR_repeats (residues 42–853), and the full length AnkR C-terminal domain (residues 1529–1907), were PCR amplified from a mouse muscle cDNA library. The coding sequence of AnkG_repeats (residues 38–855) were PCR amplified using the full-length rat 190 kDa AnkG as the template. The fusion construct of AnkR_AS and AnkB_repeats was made by standard two-step PCR with a coding sequence of thrombin recognition residues ‘GSLVPRGS’ as the linker. This construct was used to crystallize and determine the complex structure. The same strategy was used in making other fusion constructs, including the Nav1.2_ABD-C/AnkB_repeats_R1–9 fusion construct containing residues 1103–1129 from mouse Nav1.2 and human AnkB residues 28–318 followed by a capping sequence corresponding to the αB of R24 (residues 814–822) and the AnkR_AS/AnkG_repeats fusion construct. For truncation mutations of ANK repeats constructs, the same capping sequence was added to the appropriate region of the C-terminus of each construct for protein stabilization. Mouse Nav1.2 (NP_001092768.1) and mouse neurofascin (CAD65849.1) were used here for studying their interaction with ankyrins. Peptides for mouse KCNQ2 (NP_034741.2, residues 826–845) and mouse Cav1.3 (NP_083257.2, residues 2134–2166) were commercially synthesized. For simplicity, we used human 220 kDa AnkB for the amino acid numbering throughout the manuscript. For the corresponding point mutations made on AnkG_repeats, each residue number should be increased by 10. All point mutations were created using the Quick Change site-directed mutagenesis kit and confirmed by DNA sequencing. […]
Isothermal titration calorimetry (ITC) measurements were carried out on a VP-ITC MicroCal calorimeter (MicroCal, Northampton, MA) at 25°C. […] The titration data were analyzed using the program Origin 7.0 and fitted by the one-site binding model.

[2] = target: T3, FITC-labeled AnkR_AS peptide; experiment: fluorescence polarisation; details: chain shown with the change
T3 chain: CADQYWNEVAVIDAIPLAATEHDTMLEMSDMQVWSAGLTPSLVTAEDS

[3] = target: FITC-labeled AnkR_AS peptide (mouse); experiment: fluorescence polarisation; FITC-labeled peptide (~1 µM) titrated with AnkB_repeats WT or mutants; 25°C; 50 mM Tris pH 8.0, 100 mM NaCl, 1 mM DTT, 1 mM EDTA; one-site binding model

B1: Nav1.2_ABD (ankyrin binding domain of Nav1.2, residues 1035–1129) E1112Q (protein)
chain: KALDEIKPLEDLNNKKDSCISNHTTIEIGKDLNYLKDGNGTTSGIGSSVEKYVVDESDYMSFINNPSLTVTVPIAVGQSDFENLNTEEFSSESDM
Kd [1]: 4.6 µM

B2: ABD-N (1035 - 1102): N-terminal 68-residue fragment of Nav1.2 loop 2 (residues 1035–1102) (protein, UniProt Q99250 1035-1102, looked up, fragment)
chain: ALDEIKPLEDLNNKKDSCISNHTTIEIGKDLNYLKDGNGTTSGIGSSVEKYVVDESDYMSFINNPSLT
Kd (AnkG_repeats): 8.1 ± 1.1 µM
Kd (AnkG_repeats; listed as ABD-N): ~8 µM

B3: AnkB_repeats (24 ANK repeats of human 220 kDa ankyrin-B, residues 28–873), Q01484 L366Q; F399Q; L432Q (protein)
chain: KSDSNASFLRAARAGNLDKVVEYLKGGIDINTCNQNGLNALHLAAKEGHVGLVQELLGRGSSVDSATKKGNTALHIASLAGQAEVVKVLVKEGANINAQSQNGFTPLYMAAQENHIDVVKYLLENGANQSTATEDGFTPLAVALQQGHNQAVAILLENDTKGKVRLPALHIAARKDDTKSAALLLQNDHNADVQSKMMVNRTTESGFTPLHIAAHYGNVNVATLLLNRGAAVDFTARNGITPLHVASKRGNTNMVKLLLDRGGQIDAKTRDGLTPLHCAARSGHDQVVELLLERGAPLLARTKNGLSPLHMAAQGDHVECVKHLLQHKAPVDDVTLDYQTALHVAAHCGHYRVTKLLLDKRANPNARALNGQTPLHIACKKNRIKVMELLVKYGASIQAITESGQTPIHVAAFMGHLNIVLLLLQNGASPDVTNIRGETALHMAARAGQVEVVRCLLRNGALVDARAREEQTPLHIASRLGKTEIVQLLLQHMAHPDAATTNGYTPLHISAREGQVDVASVLLEAGAAHSLATKKGFTPLHVAAKYGSLDVAKLLLQRRAAADSAGKNGLTPLHVAAHYDNQKVALLLLEKGASPHATAKNGYTPLHIAAKKNQMQIASTLLNYGAETNIVTKQGVTPLHLASQEGHTDMVTLLLDKGANIHMSTKSGLTSLHLAAQEDKVNVADILTKHGADQDAHTKLGYTPLIVACHYGNVKMVNFLLKQGANVNAKTKNGYTPLHQAAQQGHTHIINVLLQHGAKPNATTANGNTALAIAKRLGYISVVDTLKVVTEEVTTTTTTITEKHKLNVPETMTEVLDVSDEEGDDTMTGDGGEYLRPEDLKELGDD
Kd [2]: 0.41 µM

B4: AnkB_repeats (24 ANK repeats of human 220 kDa ankyrin-B, residues 28–873), Q01484 F131Q; F164Q (protein)
chain: KSDSNASFLRAARAGNLDKVVEYLKGGIDINTCNQNGLNALHLAAKEGHVGLVQELLGRGSSVDSATKKGNTALHIASLAGQAEVVKVLVKEGANINAQSQNGQTPLYMAAQENHIDVVKYLLENGANQSTATEDGQTPLAVALQQGHNQAVAILLENDTKGKVRLPALHIAARKDDTKSAALLLQNDHNADVQSKMMVNRTTESGFTPLHIAAHYGNVNVATLLLNRGAAVDFTARNGITPLHVASKRGNTNMVKLLLDRGGQIDAKTRDGLTPLHCAARSGHDQVVELLLERGAPLLARTKNGLSPLHMAAQGDHVECVKHLLQHKAPVDDVTLDYLTALHVAAHCGHYRVTKLLLDKRANPNARALNGFTPLHIACKKNRIKVMELLVKYGASIQAITESGLTPIHVAAFMGHLNIVLLLLQNGASPDVTNIRGETALHMAARAGQVEVVRCLLRNGALVDARAREEQTPLHIASRLGKTEIVQLLLQHMAHPDAATTNGYTPLHISAREGQVDVASVLLEAGAAHSLATKKGFTPLHVAAKYGSLDVAKLLLQRRAAADSAGKNGLTPLHVAAHYDNQKVALLLLEKGASPHATAKNGYTPLHIAAKKNQMQIASTLLNYGAETNIVTKQGVTPLHLASQEGHTDMVTLLLDKGANIHMSTKSGLTSLHLAAQEDKVNVADILTKHGADQDAHTKLGYTPLIVACHYGNVKMVNFLLKQGANVNAKTKNGYTPLHQAAQQGHTHIINVLLQHGAKPNATTANGNTALAIAKRLGYISVVDTLKVVTEEVTTTTTTITEKHKLNVPETMTEVLDVSDEEGDDTMTGDGGEYLRPEDLKELGDD
Kd [2]: 2.7 µM

B5: AnkB_repeats site 3 mutant 'LFL' (Leu366, Phe399 and Leu432 to Gln) (domain or fragment)
chain: KSDSNASFLRAARAGNLDKVVEYLKGGIDINTCNQNGLNALHLAAKEGHVGLVQELLGRGSSVDSATKKGNTALHIASLAGQAEVVKVLVKEGANINAQSQNGFTPLYMAAQENHIDVVKYLLENGANQSTATEDGFTPLAVALQQGHNQAVAILLENDTKGKVRLPALHIAARKDDTKSAALLLQNDHNADVQSKMMVNRTTESGFTPLHIAAHYGNVNVATLLLNRGAAVDFTARNGITPLHVASKRGNTNMVKLLLDRGGQIDAKTRDGLTPLHCAARSGHDQVVELLLERGAPLLARTKNGLSPLHMAAQGDHVECVKHLLQHKAPVDDVTLDYQTALHVAAHCGHYRVTKLLLDKRANPNARALNGQTPLHIACKKNRIKVMELLVKYGASIQAITESGQTPIHVAAFMGHLNIVLLLLQNGASPDVTNIRGETALHMAARAGQVEVVRCLLRNGALVDARAREEQTPLHIASRLGKTEIVQLLLQHMAHPDAATTNGYTPLHISAREGQVDVASVLLEAGAAHSLATKKGFTPLHVAAKYGSLDVAKLLLQRRAAADSAGKNGLTPLHVAAHYDNQKVALLLLEKGASPHATAKNGYTPLHIAAKKNQMQIASTLLNYGAETNIVTKQGVTPLHLASQEGHTDMVTLLLDKGANIHMSTKSGLTSLHLAAQEDKVNVADILTKHGADQDAHTKLGYTPLIVACHYGNVKMVNFLLKQGANVNAKTKNGYTPLHQAAQQGHTHIINVLLQHGAKPNATTANGNTALAIAKRLGYISVVDTLKVVTEEVTTTTTTITEKHKLNVPETMTEVLDVSDEEGDDTMTGDGGEYLRPEDLKELGDD
fold decrease in AnkR AS binding against WT ANK repeats [3]: 3 fold

B6: AnkB_repeats (24 ANK repeats of human 220 kDa ankyrin-B, residues 28–873), Q01484 I267Q; L300Q (protein)
chain: KSDSNASFLRAARAGNLDKVVEYLKGGIDINTCNQNGLNALHLAAKEGHVGLVQELLGRGSSVDSATKKGNTALHIASLAGQAEVVKVLVKEGANINAQSQNGFTPLYMAAQENHIDVVKYLLENGANQSTATEDGFTPLAVALQQGHNQAVAILLENDTKGKVRLPALHIAARKDDTKSAALLLQNDHNADVQSKMMVNRTTESGFTPLHIAAHYGNVNVATLLLNRGAAVDFTARNGQTPLHVASKRGNTNMVKLLLDRGGQIDAKTRDGQTPLHCAARSGHDQVVELLLERGAPLLARTKNGLSPLHMAAQGDHVECVKHLLQHKAPVDDVTLDYLTALHVAAHCGHYRVTKLLLDKRANPNARALNGFTPLHIACKKNRIKVMELLVKYGASIQAITESGLTPIHVAAFMGHLNIVLLLLQNGASPDVTNIRGETALHMAARAGQVEVVRCLLRNGALVDARAREEQTPLHIASRLGKTEIVQLLLQHMAHPDAATTNGYTPLHISAREGQVDVASVLLEAGAAHSLATKKGFTPLHVAAKYGSLDVAKLLLQRRAAADSAGKNGLTPLHVAAHYDNQKVALLLLEKGASPHATAKNGYTPLHIAAKKNQMQIASTLLNYGAETNIVTKQGVTPLHLASQEGHTDMVTLLLDKGANIHMSTKSGLTSLHLAAQEDKVNVADILTKHGADQDAHTKLGYTPLIVACHYGNVKMVNFLLKQGANVNAKTKNGYTPLHQAAQQGHTHIINVLLQHGAKPNATTANGNTALAIAKRLGYISVVDTLKVVTEEVTTTTTTITEKHKLNVPETMTEVLDVSDEEGDDTMTGDGGEYLRPEDLKELGDD
Kd [2]: 3.1 µM
